Assay in all cases: cell_activity
Series [1] deals with SOX2 TALE-VP16 (Xanthomonas). The following applies: CITED; cited from earlier work.
The subject of series [2] is NTF3 TALE-VP16 (Miller 2011) (Xanthomonas). As to conditions: CITED; HEK293; cited from earlier work.
Series [3] concerns OSGIN2 TALE-VP64 (Xanthomonas). The following applies: CITED; U-2OS; cited from earlier work.
Series [4] relates to TALE-activator Ntf3-3 (Xanthomonas). As to conditions: NTF3 mRNA in 293 cells; p65 version weaker.
Series [5] has as its system ZC3H10 TALE-VP64 (Xanthomonas). The following applies: CITED; U-2OS; cited from earlier work.
The subject of series [6] is TALE-activator Ntf3-5 (Xanthomonas). As to conditions: NTF3 mRNA in 293 cells; p65 version weaker.
In series [7] the test system is TALE-activator Ntf3-2 (Xanthomonas). As to conditions: NTF3 mRNA in 293 cells; p65 version weaker.
Series [8] concerns TALE-activator Ntf3-4 (Xanthomonas). As to conditions: NTF3 mRNA in 293 cells; p65 version weaker.
For series [9], the system named is PUMA TALE-VP16 (Xanthomonas). The following applies: CITED; cited from earlier work.
The test system of series [10] is IFNb1 TALE-VP16 (Xanthomonas). As to conditions: CITED; cited from earlier work.
Series [11] concerns KLF4 TALE-VP16 (Xanthomonas). As to conditions: CITED; cited from earlier work.
The test system of series [12] is TALE-activator Ntf3-1 (Xanthomonas). As to conditions: NTF3 mRNA in 293 cells; weakest about 1000-fold; p65 version weaker.
Series [13] relates to IFNa1 TALE-VP16 (Xanthomonas). As to conditions: CITED; cited from earlier work.

In the case of “TTTATTCCCTGACA (double strand) [SOX2 site]”, in [1], the activity (fold activation) is 5.5.

Turning to “TGGAGCCATCTGGCCGGGT (double strand) [NTF3 site]”, in series [2], the activity (fold activation) is 30.

Consider “TCCTCCCCACCTTTAATTTT (double strand) [OSGIN2 site]”, for which the activity (fold activation) in [3] is 4.8.

With “TTCCCCTGCTGGGTAGTG (double strand) [Ntf3-3 site]”, the activity (fold activation (approx.)) in series [4] is above 1000.

Consider “TACCATATCCCATCCAACTC (double strand) [ZC3H10 site]”, for which the activity (fold activation) in series [5] was 1.3.

Consider “TCCCTCAATCTGGGAAAG (double strand) [Ntf3-5 site]”, for which the activity (fold activation (approx.)) in series [6] was above 1000.

“TCCGAACAGCTCCGCGCA (double strand) [Ntf3-2 site]”: the activity (fold activation (approx.)) in series [7] is above 1000.

With “TACGCCTCAGACCTGATC (double strand) [Ntf3-4 site]”, the activity (fold activation (approx.)) in series [8] was above 1000.

On to “TACTTGGAGGCAGTCAAGT (double strand) [PUMA site]”, for which, in series [9], the activity (fold activation) was 1.5.

On to “TCTCATATAAATAGGCCAT (double strand) [IFNb1 site]”, for which, in series [10], the activity (fold activation) was 3.5.

Consider “TTCTTACTTATAAC (double strand) [KLF4 site]”, for which the activity (fold activation) in [11] was 2.2.

As for “TTCTGTTCACGGGACTCA (double strand) [Ntf3-1 site]”, in series [12], the activity (fold activation (approx.)) was above 1000.

As to “TGGAAAGTGGCCCAGAAGCAT (double strand) [IFNa1 site]”, the activity (fold activation) in series [13] is 3.1.

The record behind these values is patent US20170114347.
